The experiment has as its target microtubule polymers. The note with it: domain or fragment; chains chain; Polymerised alpha/beta-tubulin heterodimers (one repeat given). Source is not printed (assay 'as previously described' in a cited paper); commercial mammalian brain tubulin is assumed, porcine taken as likeliest (bovine possible). Brain tubulin is an isotype mixture with heterogeneous PTMs (acetyl-Lys40, detyrosination, polyglutamylation); TUBA1B and the pig beta chain are representatives only. GT; modification not given.

B1: Smc5 hinge domain (residues 215–885), Q08204 215-885 (protein)
chain: LRELQGNEQSLQKDLDFKKAKIVHLRQESDKLRKSVESLRDFQNKKGEIELHSQLLPYVKVKDHKEKLNIYKEEYERAKANLRAILKDKKPFANTKKTLENQVEELTEKCSLKTDEFLKAKEKINEIFEKLNTIRDEVIKKKNQNEYYRGRTKKLQATIISTKEDFLRSQEILAQTHLPEKSVFEDIDIKRKEIINKEGEIRDLISEIDAKANAINHEMRSIQRQAESKTKSLTTTDKIGILNQDQDLKEVRDAVLMVREHPEMKDKILEPPIMTVSAINAQFAAYLAQCVDYNTSKALTVVDSDSYKLFANPILDKFKVNLRELSSADTTPPVPAETVRDLGFEGYLSDFITGDKRVMKMLCQTSKIHTIPVSRRELTPAQIKKLITPRPNGKILFKRIIHGNRLVDIKQSAYGSKQVFPTDVSIKQTNFYQGSIMSNEQKIRIENEIINLKNEYNDRKSTLDALSNQKSGYRHELSELASKNDDINREAHQLNEIRKKYTMRKSTIETLREKLDQLKREARKDVSQKIKDIDDQIQQLLLKQRHLLSKMASSMKSLKNCQKELISTQILQFEAQNMDVSMNDVIGFFNEREADLKSQYEDKKKFVKEMRDTPEFQSWMREIRSYDQDTKEKLNKVAEKYEEEGNFNLSFVQDVLDKLESEIAMVNHDES
As to B1, the Kd was 0.69 µM.

As a reminder, the Kd is the equilibrium constant for the complex coming apart.

The record behind these values is article PMC13470446.
